Experimental data reported in article PMC6405930, “Conservation of the Amyloid Interactome Across Diverse Fibrillar Structures” (Scientific Reports, 2019).

Key:
glucagon fibrils [1] = target: T1, glucagon fibrils (Homo sapiens, UniProt P01275); test: Fibril incubation with CSF, quantitative MS/MS of bound proteins; format: binding; conditions: 4:1 w/w CSF protein:fibril
T1 construct: fibrils of the peptide hormone glucagon
Procedure: (§1) Plasma and CSF solutions were centrifuged (40,000 g, 20 min) to remove any aggregates. The protein concentration was determined using 280 nm absorbance assuming 1 Abs = 1 mg/mL. […] Control samples (without fibril material) were prepared similarly. All samples were incubated at room temperature for one hour under gentle agitation. Fibrils and fibril-bound proteins were pelleted by centrifugation at 17,000 g for 30 minutes. The supernatant (175 μL) was removed and the aggregate was re-suspended in 175 μL PBS and pelleted again before further preparation for gel analysis and spin-filter assisted digest for quantitative MS/MS.
(§2) The fibril-protein pellets were transferred to spin-filters (0.22 μm), washed twice in PBS (100 μL) and once in 1 M NaCl (100 μL). The fibrils and fibril-bound proteins were dissolved by one-hour incubation in 100 μL 6 M guanidinium chloride followed by elution from the spin-filter. The eluted proteins were loaded onto a 3 kDa MWCO filter unit for filter-assisted unfolding, reduction, alkylation, and trypsin digestion. In brief, samples were washed twice in 8 M urea, once in 8 M urea with 50 mM DTT, once in 8 M urea with 50 mM iodoaceteamide, and twice in 8 M Urea. The filter units were dried by centrifugation (14,000 g in 30 minutes) after every addition. Trypsin digestion was carried out with 0.25 μg sequencing grade trypsin from Sigma Aldrich in 50 mM ammonium bicarbonate overnight at 37 °C. The tryptic peptides were collected by centrifugation, acidified with TFA (0.1%) and micro-purified using POROS R2 column material (Applied Biosystems) packed in P200 pipette tips (Sarstedt).
(§3) LC-MS/MS analyses were performed on an EASY-nLC II system (Thermo Fisher Scientific) connected to a TripleTOF 5600+ mass spectrometer (Sciex) equipped with a NanoSpray III source (Sciex) and operated under Analyst TF 1.6.0 control.
(§4) The micro-purified tryptic peptides were dissolved in 0.1% formic acid, injected and trapped on an in-house packed trap column (2 cm × 100 μm I.D) with RP ReproSil-Pur C18-AQ 3 μm resin (Dr. Maisch GmbH). Peptides were eluted from the trap column and separated on a 15 cm analytical column (75 μm i.d.) packed in-house in a pulled emitter with RP ReproSil-Pur C18-AQ 3 μm resin (Dr. Maisch GmbH). Elution from the analytical column was performed with a linear gradient from 5% to 35% phase B (90% acetonitrile with 0.1% formic acid) over 20 min for protein identification and 50 min for quantitative analysis, respectively.
(§5) All samples were analysed three times, yielding nine MS/MS experiments for each fibril for both plasma and CSF. For the area-based extracted ion chromatogram (XIC) quantification, the acquisition method was set up as an information-dependent acquisition (IDA) experiment collecting up to 25 MS/MS spectra in each 1.6 sec cycle using an exclusion window of 6 sec.
(§6) XIC quantification was based on the average ion intensity of the three most abundant peptides for each protein. Only proteins quantified in at least four out of nine MS/MS experiments per fibril were included in the quantification. The total ion scores were visualized after grouping the proteins according to function (Figure S11).
(§7) For each MS/MS experiment, the ion intensities of the individual proteins were normalized to the total ion intensity of that MS/MS experiment to achieve a relative protein composition. The contribution of each protein was averaged over all nine MS/MS experiments (Tables 1 and 2).

C-36 fibrils [2] = target: T2, C-36 fibrils (Homo sapiens, UniProt P01009); test: Fibril incubation with plasma, quantitative MS/MS of bound proteins; format: binding; conditions: 50:1 w/w plasma protein:fibril
T2 construct: the 36 residue C-terminal fragment of α1-antitrypsin (C-36)
T2 sequence (P01009 383-418 limits assumed): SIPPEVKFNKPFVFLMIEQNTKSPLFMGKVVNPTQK
Procedure: as §1, §2, §3, §4, §5, §6, §7

Ab2 fibrils [3] = tested on: T3, Ab2 fibrils; test: as above; format: binding, human; conditions: 50:1 w/w plasma protein:fibril
T3 construct: Two structurally distinct fibrils of the Aβ(1–40) peptide associated with AD
Procedure: as §1, §2, §3, §4, §5, §6, §7

Ab1 fibrils [4] = tested on: T4, Ab1 fibrils; test: Fibril incubation with CSF, quantitative MS/MS of bound proteins; format: binding, human; conditions: 4:1 w/w CSF protein:fibril
T4 construct: Synthetic amyloid β peptide 1–40 was purchased from Caslo Aps (Lyngby, Denmark); purchased Caslo Aps (Lyngby, Denmark); host or cells: synthetic peptide
Procedure: as §1, §2, §3, §4, §5, §6, §7

FAS4-AD aggregates [5] = tested on: T5, FAS4-AD aggregates; test: as above; format: binding, human; parameters: key to Identification status of CSF protein bound: FAS4-AD: *: Identified, but not quantified; —: Not identified in any of the samples; conditions: symbol cells
T5 construct: aggregates of a mutated version of the FAS1-4 domain of TGFBIp
Procedure: as §1, §2, §3, §4, §5, §6, §7

αSN fibrils = αSN fibrils (Homo sapiens, UniProt P37840); test: Fibril incubation with plasma, quantitative MS/MS of bound proteins; format: binding; conditions: 50:1 w/w plasma protein:fibril
Procedure: as §1, §2, §3, §4, §5, §6, §7

Ab1 fibrils [6] = tested on: T4, Ab1 fibrils; test: as above; format: binding, human; conditions: 50:1 w/w plasma protein:fibril
Procedure: Plasma and CSF solutions were centrifuged (40,000 g, 20 min) to remove any aggregates. The protein concentration was determined using 280 nm absorbance assuming 1 Abs = 1 mg/mL. […] Control samples (without fibril material) were prepared similarly. All samples were incubated at room temperature for one hour under gentle agitation. Fibrils and fibril-bound proteins were pelleted by centrifugation at 17,000 g for 30 minutes. The supernatant (175 μL) was removed and the aggregate was re-suspended in 175 μL PBS and pelleted again before further preparation for gel analysis and spin-filter assisted digest for quantitative MS/MS.
as §2, §3, §4, §5, §6, §7

Ab2 fibrils [7] = tested on: T3, Ab2 fibrils; test: Fibril incubation with CSF, quantitative MS/MS of bound proteins; format: binding, human; conditions: 4:1 w/w CSF protein:fibril
Procedure: as §1, §2, §3, §4, §5, §6, §7

glucagon fibrils [8] = target: T1, glucagon fibrils; test: Fibril incubation with plasma, quantitative MS/MS of bound proteins; format: binding; conditions: 50:1 w/w plasma protein:fibril
Procedure: as §1, §2, §3, §4, §5, §6, §7

C-36 fibrils [9] = target: T2, C-36 fibrils; test: Fibril incubation with CSF, quantitative MS/MS of bound proteins; format: binding; conditions: 4:1 w/w CSF protein:fibril
Procedure: as §1, §2, §3, §4, §5, §6, §7

FAS4-AD aggregates [10] = tested on: T5, FAS4-AD aggregates; test: Fibril incubation with plasma, quantitative MS/MS of bound proteins; format: binding, human; parameters: key to Identification status of plasma protein bound: FAS4-AD: *: Identified, but not quantified; —: Not identified in any of the samples; conditions: for Relative composition of plasma proteins bound: FAS4-AD: 50:1 w/w plasma protein:fibril
Procedure: as §1, §2, §3, §4, §5, §6, §7

T1 sequence (P01275 53-81 limits assumed): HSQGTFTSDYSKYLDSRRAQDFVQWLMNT

B1: Ig γ -2 chain C region: plasma/CSF protein bound to fibrils (protein, UniProt P01859 1-395, looked up)
Immunoglobulin heavy constant …: ASTKGPSVFPLAPCSRSTSESTAALGCLVKDYFPEPVTVSWNSGALTSGVHTFPAVLQSSGLYSLSSVVTVPSSNFGTQTYTCNVDHKPSNTKVDKTVERKCCVECPPCPAPPVAGPSVFLFPPKPKDTLMISRTPEVTCVVVDVSHEDPEVQFNWYVDGVEVHNAKTKPREEQFNSTFRVVSVLTVVHQDWLNGKEYKCKVSNKGLPAPIEKTISKTKGQPREPQVYTLPPSREEMTKNQVSLTCLVKGFYPSDISVEWESNGQPENNYKTTPPMLDSDGSFFLYSKLTVDKSRWQQGNVFSCSVMHEALHNHYTQKSLSLSPELQLEESCAEAQDGELDGLWTTITIFITLFLLSVCYSATITFFKVKWIFSSVVDLKQTIVPDYRNMIRQGA
B1 was tested, and the “Relative composition of CSF proteins bound: Glucagon” value (glucagon fibrils [1]) was 1.1 ± 0.3 % of total protein, the “Relative composition of plasma proteins bound: C-36” value (C-36 fibrils [2]) was 1.2 ± 0.2 % of total protein and the “Relative composition of plasma proteins bound: Ab2” value (Ab2 fibrils [3]) was 0.9 ± 0.1 % of total protein. The “Relative composition of CSF proteins bound: Ab1” value (Ab1 fibrils [4]) was 1.7 ± 0.2 % of total protein, the “Identification status of CSF protein bound: FAS4-AD” value (FAS4-AD aggregates [5]) was “*” and the “Relative composition of plasma proteins bound: αSN” value (αSN fibrils) was 1.2 ± 0.8 % of total protein. The “Relative composition of plasma proteins bound: Ab1” value (Ab1 fibrils [6]) was 0.9 ± 0.1 % of total protein, the “Relative composition of CSF proteins bound: Ab2” value (Ab2 fibrils [7]) was 2.0 ± 0.3 % of total protein and the “Relative composition of plasma proteins bound: Glucagon” value (glucagon fibrils [8]) was 0.9 ± 0.1 % of total protein. For the same molecule, the “Relative composition of CSF proteins bound: C-36” value (C-36 fibrils [9]) was 1.0 ± 0.3 % of total protein.

B2: C4b-binding protein β chain: plasma protein bound to fibrils (protein, UniProt P20851 18-252, looked up)
C4b-binding protein beta chain: SDAEHCPELPPVDNSIFVAKEVEGQILGTYVCIKGYHLVGKKTLFCNASKEWDNTTTECRLGHCPDPVLVNGEFSSSGPVNVSDKITFMCNDHYILKGSNRSQCLEDHTWAPPFPICKSRDCDPPGNPVHGYFEGNNFTLGSTISYYCEDRYYLVGVQEQQCVDGEWSSALPVCKLIQEAPKPECEKALLAFQESKNLCEAMENFMQQLKESGMTMEELKYSLELKKAELKAKLL
B2 was tested, and the “Relative composition of plasma proteins bound: C-36” value (C-36 fibrils [2]) was 0.7 ± 0.1 % of total protein, the “Relative composition of plasma proteins bound: Ab2” value (Ab2 fibrils [3]) was 1.3 ± 0.3 % of total protein and the “Identification status of plasma protein bound: FAS4-AD” value (FAS4-AD aggregates [10]; symbol cells) was “*”. The “Relative composition of plasma proteins bound: αSN” value (αSN fibrils) was 1.3 ± 0.4 % of total protein, the “Relative composition of plasma proteins bound: Ab1” value (Ab1 fibrils [6]) was 0.9 ± 0.1 % of total protein and the “Relative composition of plasma proteins bound: Glucagon” value (glucagon fibrils [8]) was 0.5 ± 0.1 % of total protein.

B3: C4b-binding protein α chain: plasma protein bound to fibrils (protein, UniProt P04003 49-597, looked up)
C4b-binding protein alpha …: NCGPPPTLSFAAPMDITLTETRFKTGTTLKYTCLPGYVRSHSTQTLTCNSDGEWVYNTFCIYKRCRHPGELRNGQVEIKTDLSFGSQIEFSCSEGFFLIGSTTSRCEVQDRGVGWSHPLPQCEIVKCKPPPDIRNGRHSGEENFYAYGFSVTYSCDPRFSLLGHASISCTVENETIGVWRPSPPTCEKITCRKPDVSHGEMVSGFGPIYNYKDTIVFKCQKGFVLRGSSVIHCDADSKWNPSPPACEPNSCINLPDIPHASWETYPRPTKEDVYVVGTVLRYRCHPGYKPTTDEPTTVICQKNLRWTPYQGCEALCCPEPKLNNGEITQHRKSRPANHCVYFYGDEISFSCHETSRFSAICQGDGTWSPRTPSCGDICNFPPKIAHGHYKQSSSYSFFKEEIIYECDKGYILVGQAKLSCSYSHWSAPAPQCKALCRKPELVNGRLSVDKDQYVEPENVTIQCDSGYGVVGPQSITCSGNRTWYPEVPKCEWETPEGCEQVLTGKRLMQCLPNPEDVKMALEVYKLSLEIEQLELQRDSARQSTLDKEL
With B3 the “Relative composition of plasma proteins bound: C-36” value (C-36 fibrils [2]) was 5.5 ± 0.3 % of total protein, the “Relative composition of plasma proteins bound: Ab2” value (Ab2 fibrils [3]) was 9.9 ± 0.5 % of total protein and the “Relative composition of plasma proteins bound: FAS4-AD” value (FAS4-AD aggregates [10]) was 2.7 ± 0.9 % of total protein. The “Relative composition of plasma proteins bound: αSN” value (αSN fibrils) was 7.4 ± 2.5 % of total protein, the “Relative composition of plasma proteins bound: Ab1” value (Ab1 fibrils [6]) was 6.1 ± 0.2 % of total protein and the “Relative composition of plasma proteins bound: Glucagon” value (glucagon fibrils [8]) was 3.0 ± 0.1 % of total protein.

B4: Ig μ chain C region: plasma protein bound to fibrils (protein, UniProt P01871 1-474, looked up)
Immunoglobulin heavy constant …: GSASAPTLFPLVSCENSPSDTSSVAVGCLAQDFLPDSITFSWKYKNNSDISSTRGFPSVLRGGKYAATSQVLLPSKDVMQGTDEHVVCKVQHPNGNKEKNVPLPVIAELPPKVSVFVPPRDGFFGNPRKSKLICQATGFSPRQIQVSWLREGKQVGSGVTTDQVQAEAKESGPTTYKVTSTLTIKESDWLGQSMFTCRVDHRGLTFQQNASSMCVPDQDTAIRVFAIPPSFASIFLTKSTKLTCLVTDLTTYDSVTISWTRQNGEAVKTHTNISESHPNATFSAVGEASICEDDWNSGERFTCTVTHTDLPSPLKQTISRPKGVALHRPDVYLLPPAREQLNLRESATITCLVTGFSPADVFVQWMQRGQPLSPEKYVTSAPMPEPQAPGRYFAHSILTVSEEEWNTGETYTCVVAHEALPNRVTERTVDKSTEGEVSADEEGFENLWATASTFIVLFLLSLFYSTTVTLFKVK
B4 was tested, and the “Relative composition of plasma proteins bound: C-36” value (C-36 fibrils [2]) was 0.4 ± 0.1 % of total protein, the “Relative composition of plasma proteins bound: Ab2” value (Ab2 fibrils [3]) was 0.7 ± 0.2 % of total protein and the “Relative composition of plasma proteins bound: FAS4-AD” value (FAS4-AD aggregates [10]) was 2.6 ± 1.5 % of total protein. The “Relative composition of plasma proteins bound: αSN” value (αSN fibrils) was 0.5 ± 0.2 % of total protein, the “Relative composition of plasma proteins bound: Ab1” value (Ab1 fibrils [6]) was 0.6 ± 0.0 % of total protein and the “Relative composition of plasma proteins bound: Glucagon” value (glucagon fibrils [8]) was 0.8 ± 0.1 % of total protein.
